{
  "source": "paper PMC11299580",
  "about": "“Discovery of novel disease-causing mutation in SSBP1 and its correction using adenine base editor to improve mitochondrial function” (Molecular Therapy. Nucleic Acids, 2023)",
  "biological_target": "T1, SSBP1 Arg91Gln R91Q (Homo sapiens) (UniProt Q04837)",
  "T1 sequence": "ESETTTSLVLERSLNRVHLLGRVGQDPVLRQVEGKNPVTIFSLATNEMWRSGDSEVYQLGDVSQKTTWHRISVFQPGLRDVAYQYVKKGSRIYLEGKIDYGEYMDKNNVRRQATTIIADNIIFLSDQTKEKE",
  "assay": "EMSA",
  "conditions": "50 mM Tris pH 7.5, 150 mM NaCl, 10% glycerol, 30 min at room temperature; 2% agarose gel in 1x TBE",
  "note": "pKd: −log10 of the molar value.",
  "data": [
    {"sequence": "GGACTATTTATTCAATATATTTAAGAACTAATTCCAGCTGAGCGCCGG [EMSA ssDNA probe]", "values": [
      {"measurement": "pKd", "result": 7.69}
    ]}
  ]
}
